The values that follow come from publication PMC10418980, “Synthesis and Evaluation of ^177Lu-DOTA-PD-L1-i and ^225Ac-HEHA-PD-L1-i as Potential Radiopharmaceuticals for Tumor Microenvironment-Targeted Radiotherapy” (International Journal of Molecular Sciences, 2023).

For one data set, the system named is HCC827 cells. The experiment in a line: Cell viability assay (flow cytometry, Muse Count & Viability Kit). It is filed as cell-based, human. As to conditions: 5 h. The procedure:
The effect of ^177Lu DOTA-PD-L1-i, ^225Ac-HEHA-PD-L1-i, and PD-L1-i on HCC827 cell viability (5 × 10^4) was determined by flow cytometry with the Muse® Count & Viability Kit from Luminex, DiaSorin, USA. Before taking readings with the Muse Cell Analyzer (Merck Millipore, Burlington, MA, USA) previously calibrated with the Muse® System Check kit, the baseline detection was established using a fresh sample of untreated cells that served to delimit the size and granularity of the cell line, as well as the basal viability of the population. Also, the reading window for dead cells was established using an aliquot of the same population treated with 0.5% Triton-X100. Once the detection window for the HCC827 cells was established to discriminate between live and dead cells, 50 µL (2 × 10^4 cells/200 µL) were taken from the cell suspension that had been treated with cold ligand (PD-L1-i, 0.1 µg), with 1.4 MBq of ^177Lu DOTA-PD-L1-i or 0.37 kBq of ^225Ac-HEHA-PD-L1-i for 5 h and then mixed with 450 µL of the viability reagent; after 5 min incubation at room temperature and in the dark, the samples were read in triplicate. For the calculation of the radiation absorbed dose to cell nuclei, the total number of nuclear transformations (N) normalized to the unit of administered activity (Bq^.s/Bq) was obtained with the A(t) mathematical integration (from t = 0 to t = 5 h). […]

Data set [1] concerns mice inoculated with HCC827 lung cancer cells. Nature of the data set: Creatinine and liver enzyme levels. It is filed as in vivo. Here is the method:
Mouse blood samples collected at 96 h after radiopharmaceutical administration were used for the determination of alanine aminotransferase (ALT), creatinine, and aspartate aminotransferase (AST). Creatinine was measured titrimetrically. The picrate method was used. AST and ALT were quantified using a Roche Diagnostics kit for UV assays.

The test system of data set [2] is kidney and liver tissues from mice. The experiment in a line: Histopathological assessment (H&E). It counts as in vivo. The note with it: mice exposed to the radiopharmaceuticals. The procedure: Healthy lungs, kidneys, liver, and lungs from mice injected i.v. with HCC827 cells were fixed with 4% paraformaldehyde for 24 h at room temperature, embedded in paraffin, and sectioned in 4–5 µm thick sections using a microtome. Paraffin sections of lung samples were deparaffinized in xylene and rehydrated in a series of graded alcohols. Dewaxed tissue sections were stained with hematoxylin and eosin (H&E). The sections were assessed using a light microscope (magnification of 100x) (Zeiss; Mod. Axioscope: Oberkochen, Germany). Images were acquired with a digital camera (5 MP high-speed color; AmScope; Mod.Mu500: Irvine, CA, USA).

Data set [3] has as its system lungs of athymic mice with or without HCC827 lung micrometastases. Nature of the data set: Radioisotopic/X-ray imaging. It is filed as in vivo. Here is the method: Under an approved protocol (No. 07-2018-2021), all animal procedures followed the ethical regulations for handling laboratory animals (NOM-062-ZOO-1999) and the Institutional Animal Care and Use Committee requirements. Male Nu/Nu (UPEAL, […], I.PN., Mexico City, Mexico) mice aged 6–8 weeks were maintained in a pathogen-free barrier facility. Mice were injected with 3.7 MBq (50 µL) of ^177Lu DOTA-PD-L1-I or 3.7 kBq (50 µL) of ^225Ac-HEHA-PD-L1-i in the tail vein and sacrificed at 0.5, 1, 3, 24, 72, and 96 h (n = 3). The heart, lungs, liver, pancreas, spleen, kidneys, small intestine, brain, and stomach were dissected to be measured in a NaI(Tl) radioactivity detector. The results are expressed as the percentage of injected dose (%ID) per organ. Blood samples were also extracted, and the activity was recorded as %ID/g. A second group of mice was inoculated intravenously with 1 × 10^6 HCC827 cells. The animals were treated with 3.7 MBq (50 µL) of ^177Lu DOTA-PD-L1-i (n = 3) or 3.7 kBq (50 µL) of ^225Ac-HEHA-PD-L1-i (n = 3) via tail vein injection on day five post-tumor cell inoculation. The animals were dissected as described above. In the case of ^177Lu DOTA-PD-L1-i, radioisotopic/X-ray in vivo/ex vivo images were obtained in a Preclinical Imaging System (Bruker, XTREME). For in vivo imaging, mice were anesthetized with oxygen and 2% isoflurane.

[4] abbreviates: ex vivo lungs, radioisotopic imaging.

For the molecule `CCCC[C@H]1C(=O)N(C)[C@@H](CCCC)C(=O)N[C@@H](CCCNC(=S)Nc2ccc(C[C@H]3CN(CC(=O)O)CCN(CC(=O)O)CCN(CC(=O)O)CCN3CC(=O)O)cc2)C(=O)N[C@H](C(=O)NCC(N)=O)CSCC(=O)N[C@@H](Cc2ccc(O)cc2)C(=O)N(C)[C@@H](C)C(=O)N[C@@H](CC(N)=O)C(=O)N2CCC[C@H]2C(=O)N[C@@H](Cc2c[nH]cn2)C(=O)N[C@@H](CC(C)C)C(=O)N2C[C@H](O)C[C@H]2C(=O)N[C@@H](Cc2c[nH]c3ccccc23)C(=O)N[C@@H](CO)C(=O)N[C@@H](Cc2cn(C)c3ccccc23)C(=O)N1C` [^177Lu-DOTA-PD-L1-i, metal not drawn], the “net decrease in alive cells regarding the control group (representative histogram)” value with HCC827 cells (177Lu 15 Gy, 225Ac 5 Gy) turned out to be 30%. Besides, the net decrease viability in the data set with HCC827 cells (177Lu-DOTA-PD-L1-i 15 Gy (1.4 MBq/20,000 cells), 225Ac-HEHA-PD-L1-i 5 Gy (0.37 kBq/20,000 cells), PD-L1-i 0.1 µg/20,000 cells, read in triplicate) came to 31.42 ± 2.01%. In addition, in data set [1] (96 h after 3.7 MBq 177Lu or 3.7 kBq 225Ac, day 5 after i.v. HCC827 inoculation, mean ± SD, n = 3, control 0.198 ± 0.057), the Creatinine was 0.199 ± 0.062 mg/dL. Also, in data set [1] (96 h after 3.7 MBq 177Lu or 3.7 kBq 225Ac, day 5 after i.v. HCC827 inoculation, mean ± SD, n = 3, control 71 ± 7), the “Alanine Aminotransferase (ALT)” value is recorded as 68 ± 4 IU/L. Moreover, the “Aspartate Aminotransferase (AST)” value in data set [1] (96 h after 3.7 MBq 177Lu or 3.7 kBq 225Ac, day 5 after i.v. HCC827 inoculation, mean ± SD, n = 3, control 150 ± 13) is 143 ± 14 IU/L. Besides, in data set [1] (ALT, creatinine, AST vs control group (Table A1)), the “effect on the function of liver and kidney” value was “No significant cytotoxic effect”. Moreover, in data set [2], the “histological staining (H&E) of liver and kidney” value was “no pathologic changes in the liver and kidney”. Also, in data set [3] (setting [4]), the “lung uptake pattern, average number of emitted photons per normalized area, mice in which metastases were not induced” value is recorded as 78 ± 32 photons/cm^2 and the “lung uptake pattern, average number of emitted photons per normalized area, mice with metastatic HCC827 cells” value is listed as 298 ± 82 photons/cm^2. For the same molecule, the “tissue accumulation in radioisotopic images” value in data set [3] (in vivo and ex vivo, athymic mice with lung micrometastases, 30 min, 24 and 72 h) was “the only tissue that accumulated the radiotracer was the lung invaded by HCC827 cancer cells”.
